{
  "source": "paper PMC11722252",
  "molecular_target": "Caenorhabditis elegans leucine-rich-repeat-containing GPCR (CeLGR), residues Gln31 to Arg712 (Caenorhabditis elegans) (UniProt G5EG04)",
  "assay": "MST",
  "data": [
    {"substance": "C. elegans α2/β5 heterodimeric hormone (Ceα2β5) (from UniProt A7DT38 20-125) (complex)", "values": [
      {"measurement": "Kd", "result": 153, "unit": "nM"}
    ]}
  ]
}
